This passage reports Kd results from patent US20200317768A1 (published 2020).

To fix the notation:
B1: M103205H795-MY228/M103202L889-SK1 (antibody, human IgG1, kappa)
heavy: QVTLKESGPVLVKPTETLTLTCTVSGIDLSHDDISWVRQAPGKGLEWVGIISYAGSTYYASWAKGRLTISKDTSKNQVVLTMTNMDPVDTATYYCARGVPAYSHGGDLWGQGTLVTVSSASTKGPSVFPLAPSSKSTSGGTAALGCLVKDYFPEPVTVSWNSGALTSGVHTFPAVLQSSGLYSLSSVVTVPSSSLGTQTYICNVNHKPSNTKVDKKVEPKSCDKTHTCPPCPAPELLGYPSVFLFPPKPKDTLMISRTPEVTCVVVDVSDEDPEVKFNWYVDGVEVHNAKTKPREELYNSTYRVVSVLTVLHQDWLNGKEYKCKVSNKALPKPIEKTISKAKGQPREPQVYTLPPSREEMTKNQVSLTCLVKGFYPSDIAVEWESNGQPENNYKTTPPVLDSDGSFFLYSKLTVDKSRWQQGNVFSCSVMHEALHNHYTQKSLSLSP
light: DIVMTQSPATLSLSPGERATLSCTSSQSVYHANWLSWFQQKPGQPPKLLIYWASTLAYGVPSRFSGSGSGTDFTLTISSLQPEDAATYYCAGGYGGGRYAFGQGTKVEIKRTVAAPSVFIFPPSDEQLKSGTASVVCLLNNFYPREAKVQWKVDNALQSGNSQESVTEQDSKDSTYSLSSTLTLSKADYEKHKVYACEVTHQGLSSPVTKSFNRGEC
B2: M103205H795-MY269/M103202L889-SK1 (antibody, human IgG1, kappa)
heavy: QVTLKESGPVLVKPTETLTLTCTVSGIDLSHDDISWVRQAPGKGLEWVGIISYAGSTYYASWAKGRLTISKDTSKNQVVLTMTNMDPVDTATYYCARGVPAYSHGGDLWGQGTLVTVSSASTKGPSVFPLAPSSKSTSGGTAALGCLVKDYFPEPVTVSWNSGALTSGVHTFPAVLQSSGLYSLSSVVTVPSSSLGTQTYICNVNHKPSNTKVDKKVEPKSCDKTHTCPPCPAPELLMGPSVFLFPPKPKDTLMISRTPEVTCVVVDVSDEDPEVKFNWYVDGVEVHNAKTKPREEQYNSTYRVVSVLTVLHQDWLNGKEYKCKVSNKALPKPIEKTISKAKGQPREPQVYTLPPSREEMTKNQVSLTCLVKGFYPSDIAVEWESNGQPENNYKTTPKVLDSDGSFFLYSKLTVDKSRWQQGNVFSCSVMHEALHNHYTQKSLSLSP
light: DIVMTQSPATLSLSPGERATLSCTSSQSVYHANWLSWFQQKPGQPPKLLIYWASTLAYGVPSRFSGSGSGTDFTLTISSLQPEDAATYYCAGGYGGGRYAFGQGTKVEIKRTVAAPSVFIFPPSDEQLKSGTASVVCLLNNFYPREAKVQWKVDNALQSGNSQESVTEQDSKDSTYSLSSTLTLSKADYEKHKVYACEVTHQGLSSPVTKSFNRGEC
B3: M103205H795-MY271/M103202L889-SK1 (antibody, human IgG1, kappa)
heavy: QVTLKESGPVLVKPTETLTLTCTVSGIDLSHDDISWVRQAPGKGLEWVGIISYAGSTYYASWAKGRLTISKDTSKNQVVLTMTNMDPVDTATYYCARGVPAYSHGGDLWGQGTLVTVSSASTKGPSVFPLAPSSKSTSGGTAALGCLVKDYFPEPVTVSWNSGALTSGVHTFPAVLQSSGLYSLSSVVTVPSSSLGTQTYICNVNHKPSNTKVDKKVEPKSCDKTHTCPPCPAPELLVGPSVFLFPPKPKDTLMISRTPEVTCVVVDVSDEDPEVKFNWYVDGVEVHNAKTKPREEQYNSTYRVVSVLTVLHQDWLNGKEYKCKVSNKALPKPIEKTISKAKGQPREPQVYTLPPSREEMTKNQVSLTCLVKGFYPSDIAVEWESNGQPENNYKTTPKVLDSDGSFFLYSKLTVDKSRWQQGNVFSCSVMHEALHNHYTQKSLSLSP
light: DIVMTQSPATLSLSPGERATLSCTSSQSVYHANWLSWFQQKPGQPPKLLIYWASTLAYGVPSRFSGSGSGTDFTLTISSLQPEDAATYYCAGGYGGGRYAFGQGTKVEIKRTVAAPSVFIFPPSDEQLKSGTASVVCLLNNFYPREAKVQWKVDNALQSGNSQESVTEQDSKDSTYSLSSTLTLSKADYEKHKVYACEVTHQGLSSPVTKSFNRGEC
B4: M103205H795-MY270/M103202L889-SK1 (antibody, human IgG1, kappa)
heavy: QVTLKESGPVLVKPTETLTLTCTVSGIDLSHDDISWVRQAPGKGLEWVGIISYAGSTYYASWAKGRLTISKDTSKNQVVLTMTNMDPVDTATYYCARGVPAYSHGGDLWGQGTLVTVSSASTKGPSVFPLAPSSKSTSGGTAALGCLVKDYFPEPVTVSWNSGALTSGVHTFPAVLQSSGLYSLSSVVTVPSSSLGTQTYICNVNHKPSNTKVDKKVEPKSCDKTHTCPPCPAPELLHGPSVFLFPPKPKDTLMISRTPEVTCVVVDVSDEDPEVKFNWYVDGVEVHNAKTKPREEQYNSTYRVVSVLTVLHQDWLNGKEYKCKVSNKALPKPIEKTISKAKGQPREPQVYTLPPSREEMTKNQVSLTCLVKGFYPSDIAVEWESNGQPENNYKTTPKVLDSDGSFFLYSKLTVDKSRWQQGNVFSCSVMHEALHNHYTQKSLSLSP
light: DIVMTQSPATLSLSPGERATLSCTSSQSVYHANWLSWFQQKPGQPPKLLIYWASTLAYGVPSRFSGSGSGTDFTLTISSLQPEDAATYYCAGGYGGGRYAFGQGTKVEIKRTVAAPSVFIFPPSDEQLKSGTASVVCLLNNFYPREAKVQWKVDNALQSGNSQESVTEQDSKDSTYSLSSTLTLSKADYEKHKVYACEVTHQGLSSPVTKSFNRGEC
B5: M103205H795-MY242/M103202L889-SK1 (antibody, human IgG1, kappa)
heavy: QVTLKESGPVLVKPTETLTLTCTVSGIDLSHDDISWVRQAPGKGLEWVGIISYAGSTYYASWAKGRLTISKDTSKNQVVLTMTNMDPVDTATYYCARGVPAYSHGGDLWGQGTLVTVSSASTKGPSVFPLAPSSKSTSGGTAALGCLVKDYFPEPVTVSWNSGALTSGVHTFPAVLQSSGLYSLSSVVTVPSSSLGTQTYICNVNHKPSNTKVDKKVEPKSCDKTHTCPPCPAPELLGGISVFLFPPKPKDTLMISRTPEVTCVVVDVSDEDPEVKFNWYVDGVEVHNAKTKPREEQYNSTYRVVSVLTVLHQDWLNGKEYKCKVSNKALPKPIEKTISKAKGQPREPQVYTLPPSREEMTKNQVSLTCLVKGFYPSDIAVEWESNGQPENNYKTTPKVLDSDGSFFLYSKLTVDKSRWQQGNVFSCSVMHEALHNHYTQKSLSLSP
light: DIVMTQSPATLSLSPGERATLSCTSSQSVYHANWLSWFQQKPGQPPKLLIYWASTLAYGVPSRFSGSGSGTDFTLTISSLQPEDAATYYCAGGYGGGRYAFGQGTKVEIKRTVAAPSVFIFPPSDEQLKSGTASVVCLLNNFYPREAKVQWKVDNALQSGNSQESVTEQDSKDSTYSLSSTLTLSKADYEKHKVYACEVTHQGLSSPVTKSFNRGEC
B6: M103205H795-MY272/M103202L889-SK1 (antibody, human IgG1, kappa)
heavy: QVTLKESGPVLVKPTETLTLTCTVSGIDLSHDDISWVRQAPGKGLEWVGIISYAGSTYYASWAKGRLTISKDTSKNQVVLTMTNMDPVDTATYYCARGVPAYSHGGDLWGQGTLVTVSSASTKGPSVFPLAPSSKSTSGGTAALGCLVKDYFPEPVTVSWNSGALTSGVHTFPAVLQSSGLYSLSSVVTVPSSSLGTQTYICNVNHKPSNTKVDKKVEPKSCDKTHTCPPCPAPELLQGPSVFLFPPKPKDTLMISRTPEVTCVVVDVSDEDPEVKFNWYVDGVEVHNAKTKPREEQYNSTYRVVSVLTVLHQDWLNGKEYKCKVSNKALPKPIEKTISKAKGQPREPQVYTLPPSREEMTKNQVSLTCLVKGFYPSDIAVEWESNGQPENNYKTTPKVLDSDGSFFLYSKLTVDKSRWQQGNVFSCSVMHEALHNHYTQKSLSLSP
light: DIVMTQSPATLSLSPGERATLSCTSSQSVYHANWLSWFQQKPGQPPKLLIYWASTLAYGVPSRFSGSGSGTDFTLTISSLQPEDAATYYCAGGYGGGRYAFGQGTKVEIKRTVAAPSVFIFPPSDEQLKSGTASVVCLLNNFYPREAKVQWKVDNALQSGNSQESVTEQDSKDSTYSLSSTLTLSKADYEKHKVYACEVTHQGLSSPVTKSFNRGEC

T1 sequence (P08637 17-208 F176V): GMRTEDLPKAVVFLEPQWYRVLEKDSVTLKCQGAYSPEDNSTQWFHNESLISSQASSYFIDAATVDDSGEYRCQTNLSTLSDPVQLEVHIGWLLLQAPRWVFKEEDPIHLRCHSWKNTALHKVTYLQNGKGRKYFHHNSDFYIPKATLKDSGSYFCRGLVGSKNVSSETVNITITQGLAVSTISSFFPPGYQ

The test concerns the target T1, human FcγRIIIaV extracellular domain, C-terminal His-tag (human, UniProt P08637 17-208).
T1 construct: also called FcgRIIIaV; not shown: His-tag added to C-terminus
The test can be described thus: SPR (Biacore), antibody captured, FcgR analyte, 25 C.
On to B1, for which the affinity, expressed as Kd, was 140000 nM. With B2, the affinity, expressed as Kd, was 1100 nM.

With B3, the Kd was 2300 nM. In turn, B4 came in with a Kd of 3700 nM. The figure for B5 is 9200 nM; for B6 it is 870 nM.

Usually Kd stands for the constant that tells how readily two partners part at equilibrium. A low value points to tighter binding.
